In patent US20190389951A1 (Regeneron, published 2019):

What was measured:
[1] = target: T1, human PSMA on cells (C4-2, 22RV1, HEK293/hCD20/hPSMA) (human, UniProt Q04609 1-750); test: electrochemiluminescence cell binding (MSD), C4-2 cells; concentrations above 11.1 nM excluded
T1 construct: C4-2 and 22RV1 express PSMA endogenously; also called FOLH1

[2] = target: T2, human CD28 on cells (HEK293/hCD28 cells, human T cells, engineered reporter T-cells) (human, UniProt P10747 19-220); test: electrochemiluminescence cell binding (MSD), HEK293-hCD28 cells
T2 construct: primary human T cells carry it naturally

[3] = target: T2, human CD28 on cells (HEK293/hCD28 …); test: electrochemiluminescence cell binding (MSD)
[4] = target: T1, human PSMA on cells (C4-2, 22RV1, …); test: electrochemiluminescence cell binding (MSD)
[5] = target: T2, human CD28 on cells (HEK293/hCD28 …); test: cell-based or functional assay
[6] = target: T3, hCD28.mmh (hCD28 ecto (N19-P152).mmh) (human); test: SPR (Biacore T-200), antibody captured on anti-human Fc, hCD28.mmh injected, 25 C
T3 construct: also called REGN2011

[7] = target: T1, human PSMA on cells (C4-2, 22RV1, …); test: electrochemiluminescence cell binding (MSD), supplemental experiment, C4-2 P-7 cells
[8] = target: T2, human CD28 on cells (HEK293/hCD28 …); test: cell-based or functional assay; remark: listed apart in the source
[9] = target: T4, 6h.hPSMA (recombinant Human PSMA/FOLH1 Protein, R&D, Catalog #4234-ZN) (human, UniProt Q04609 44-750); test: SPR (Biacore T-200), antibody captured on anti-human Fc, 6h.hPSMA injected, 25 C
T4 construct: Bought protein; also called hPSMA.6H; hPSMA with an N-terminal polyhistidine tag; not shown: N-terminal polyhistidine (6-His) tag
T4 sequence (Q04609 44-750 limits assumed): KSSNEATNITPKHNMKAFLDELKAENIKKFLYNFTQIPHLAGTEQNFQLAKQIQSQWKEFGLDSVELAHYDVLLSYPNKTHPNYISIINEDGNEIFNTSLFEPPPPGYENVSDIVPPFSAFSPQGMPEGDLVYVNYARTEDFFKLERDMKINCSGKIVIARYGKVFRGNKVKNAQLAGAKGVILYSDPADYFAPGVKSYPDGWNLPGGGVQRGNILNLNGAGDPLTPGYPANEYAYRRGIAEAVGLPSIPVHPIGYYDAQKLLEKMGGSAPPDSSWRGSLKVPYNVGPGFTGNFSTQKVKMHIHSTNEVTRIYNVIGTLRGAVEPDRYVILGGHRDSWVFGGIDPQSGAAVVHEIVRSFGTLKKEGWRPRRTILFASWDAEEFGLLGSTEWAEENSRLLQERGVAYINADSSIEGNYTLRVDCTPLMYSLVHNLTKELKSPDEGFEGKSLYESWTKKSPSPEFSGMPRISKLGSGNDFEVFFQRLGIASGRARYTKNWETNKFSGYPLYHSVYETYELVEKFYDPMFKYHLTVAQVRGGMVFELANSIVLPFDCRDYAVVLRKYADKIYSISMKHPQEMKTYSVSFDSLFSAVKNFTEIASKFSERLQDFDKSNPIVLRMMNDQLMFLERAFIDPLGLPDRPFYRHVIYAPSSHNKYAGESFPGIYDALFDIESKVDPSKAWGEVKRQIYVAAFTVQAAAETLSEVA

[10] = target: T2, human CD28 on cells (HEK293/hCD28 …); test: cell-based or functional assay; remark: listed apart in the source
[11] = target: T1, human PSMA on cells (C4-2, 22RV1, …); test: electrochemiluminescence cell binding (MSD), C4-2 cells
[12] = target: T4, 6h.hPSMA (recombinant Human PSMA/FOLH1 …); test: SPR (Biacore), captured antibody, 20 nM hPSMA.6H row, 37 C
[13] = target: T2, human CD28 on cells (HEK293/hCD28 …); test: flow cytometry, human CD2+ T cells
[14] = target: T2, human CD28 on cells (HEK293/hCD28 …); test: flow cytometry, human CD4+ T cells
[15] = target: T2, human CD28 on cells (HEK293/hCD28 …); test: flow cytometry, human CD8+ T cells
[16] = target: T1, human PSMA on cells (C4-2, 22RV1, …); test: flow cytometry, 22RV1 cells
[17] = target: T4, 6h.hPSMA (recombinant Human PSMA/FOLH1 …); test: SPR (Biacore), captured antibody, 10 nM hPSMA.6H row, 37 C
[18] = target: T1, human PSMA on cells (C4-2, 22RV1, …); test: flow cytometry, C4-2 cells
[19] = target: T3, hCD28.mmh (hCD28 ecto (N19-P152).mmh); test: SPR (Biacore), captured antibody, soluble hCD28 injected, 37 C
[20] = target: T1, human PSMA on cells (C4-2, 22RV1, …); test: flow cytometry (FACS binding), MFI_APC against antibody concentration; the sheet does not name the cells; legend paragraph 55: cancer cell lines with endogenous PSMA; unit taken from the axis Log10 (M)

T1 sequence (Q04609 whole entry): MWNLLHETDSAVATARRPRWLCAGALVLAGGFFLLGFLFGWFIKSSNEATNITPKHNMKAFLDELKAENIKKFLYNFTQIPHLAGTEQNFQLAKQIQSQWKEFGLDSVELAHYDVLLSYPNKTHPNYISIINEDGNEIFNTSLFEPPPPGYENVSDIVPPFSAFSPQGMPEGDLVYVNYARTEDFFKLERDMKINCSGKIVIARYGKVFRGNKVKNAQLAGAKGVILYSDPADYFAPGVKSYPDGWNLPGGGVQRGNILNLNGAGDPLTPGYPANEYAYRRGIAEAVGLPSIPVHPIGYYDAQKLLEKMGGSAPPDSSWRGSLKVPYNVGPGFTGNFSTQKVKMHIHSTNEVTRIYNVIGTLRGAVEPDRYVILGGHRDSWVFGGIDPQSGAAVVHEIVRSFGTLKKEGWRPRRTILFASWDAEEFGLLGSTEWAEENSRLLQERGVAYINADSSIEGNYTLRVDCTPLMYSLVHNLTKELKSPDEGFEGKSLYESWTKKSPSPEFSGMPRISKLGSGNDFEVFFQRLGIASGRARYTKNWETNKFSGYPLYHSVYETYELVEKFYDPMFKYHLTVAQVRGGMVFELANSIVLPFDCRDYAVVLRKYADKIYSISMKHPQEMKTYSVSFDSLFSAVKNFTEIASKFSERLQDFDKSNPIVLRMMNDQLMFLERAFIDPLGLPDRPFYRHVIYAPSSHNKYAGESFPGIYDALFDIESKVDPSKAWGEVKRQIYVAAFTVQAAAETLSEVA

Binder | EC50 [1] [nM] | ratio of binding signal (RLU) HEK293-hCD28/HEK293HZ at 11.1 nM [3] [fold] | ratio of binding signal (RLU) C4-2/HEK293HZ at 11.1 nM [4] [fold] | IL-2 production EC50, primary CD4+ T-cells + HEK293/hCD20/hPSMA, 50 pM anti-CD3×CD20 [5] [M] | T½ (dissociative half-life) [6] [min] | binding result [9] | NFκB-luciferase EC50, reporter T-cells + HEK293/hCD20/hPSMA, 50 pM anti-CD3×CD20 [10] [M] | EC50 [11] [nM] | EC50 [2] [nM] | EC50 [13] [nM] | EC50 [14] [nM] | EC50 [15] [nM] | EC50 [16] [nM] | Kd [6] [nM] | EC50 [18] [nM] | Kd [9] [nM] | T½ (dissociative half-life) [9] [min] | also measured
mAb11838P2 (antibody, V domains shown, Bivalent parental anti-PSMA antibody; also called anti-PSMA monoclonal antibody; mAb11838P2 (PSMA)) VH: QVQLVESGGGVVQPGRSLRLSCAASGFTFSSYGMHWVRQAPGKGLEWVAFMSYDGSNKFYSDSVKGRFTISRDNSRKMLFLQMNNLRAEDTAVYYCARDQYYDFLTDHGVFDYWGQGTLVTVSS VL: not shown | 0.738 | < 1 | 4 | – | – | – | – | – | – | – | – | – | – | – | – | – | – | binding result [2]: no binding (tested: ratio to HEK293HZ less than 3 at 11.1 nM)
mAb14216P2 (antibody, V domains shown, Bivalent parental anti-CD28 antibody; also called anti-CD28 monoclonal antibody) VH: EVQLVESGGGLVQPGGSLRLSCAASGFTFSRNNMHWVRQAPGKGLEYVSGISSNGGRTYYADSVKGRFTISRDNSKNTLYLQMGGLRAADMAVYFCTRDDELLSFDYWGQGTLVTVSS VL: not shown | – | – | – | – | 8.2 | no binding (tested: 10 nM) | – | – | – | – | – | – | – | – | – | – | – | binding result [11]: no binding (tested: ratio to HEK293HZ less than 3 at 11.1 nM)
bs16430D (bispecific antibody, V domains shown, two distinct heavy chains with a common light chain; also called anti-PSMA×CD28 bispecific antibody; PSMA × CD28 monoclonal antibody) VH 1: EVQLVESGGGLVQPGGSLRLSCAASGFTFSTYAMTWVRQAPGKGLEWVSFISGSGDNTYYADSVKGRFTISRDNSKNTLYLQMNSLRADDSAIYHCAKDSGYCSSGGCSLYFYYGMDVWGQGTTVTVSS VH 2: QVQLVESGGGVVQPGRSLRLSCAASGFTFSSYGMHWVRQAPGKGLEWVAVISYAGNNKYYADSVKGRFTVSRDNSKKTLYLQMNSLRSEDTAVYYCAKDSYYDFLTDPDVLDIWGQGTMVTVSS VL: not shown | – | 41 | 10 | 1.5e-10 | – | – | 4.57e-10 | 5.24 | 8.47 | – | – | – | – | – | – | – | – | IL-2 production fold induction, primary CD4+ T-cells + HEK293/hCD20, 50 pM anti-CD3×CD20 [5]: 1 fold; IL-2 production fold induction, primary CD4+ T-cells + HEK293/hCD20/hPSMA, 50 pM anti-CD3×CD20 [5]: 165 fold; NFκB-luciferase fold induction, reporter T-cells + HEK293/hCD20, 50 pM hIgG4 isotype control (no TCR stimulation) [8]: 0.87 fold; NFκB-luciferase fold induction, reporter T-cells + HEK293/hCD20/hPSMA, 50 pM hIgG4 isotype control (no TCR stimulation) [8]: 0.89 fold; NFκB-luciferase fold induction, reporter T-cells + HEK293/hCD20, 50 pM anti-CD3×CD20 [10]: 0.92 fold; NFκB-luciferase fold induction, reporter T-cells + HEK293/hCD20/hPSMA, 50 pM anti-CD3×CD20 [10]: 13.6 fold

Continued, in another order:

EC50 [1] [nM] | ratio of binding signal (RLU) HEK293-hCD28/HEK293HZ at 11.1 nM [3] [fold] | ratio of binding signal (RLU) C4-2/HEK293HZ at 11.1 nM [4] [fold] | IL-2 production EC50, primary CD4+ T-cells + HEK293/hCD20/hPSMA, 50 pM anti-CD3×CD20 [5] [M] | T½ (dissociative half-life) [6] [min] | binding result [9] | NFκB-luciferase EC50, reporter T-cells + HEK293/hCD20/hPSMA, 50 pM anti-CD3×CD20 [10] [M] | EC50 [11] [nM] | EC50 [2] [nM] | EC50 [13] [nM] | EC50 [14] [nM] | EC50 [15] [nM] | EC50 [16] [nM] | Kd [6] [nM] | EC50 [18] [nM] | Kd [9] [nM] | T½ (dissociative half-life) [9] [min] | Binder | also measured
– | – | – | 8.69e-09 | 3.5 | no binding (tested: 10 nM) | 3.27e-09 | – | – | – | – | – | – | – | – | – | – | mAb14226P2 (antibody, V domains shown, Bivalent parental anti-CD28 antibody; also called anti-CD28 monoclonal antibody) VH: QVQLQESGPGLVKPSETLSLTCTVSGGSISSYYWSWIRQPPGKGLEWIGYIYYSGITHYNPSLKSRVTISVDTSKIQFSLKLSSVTAADTAVYYCARWGVRRDYYYYGMDVWGQGTTVTVSS VL: not shown | IL-2 production EC50, primary CD4+ T-cells + HEK293/hCD20, 50 pM anti-CD3×CD20 [5]: 6.05e-09 M; binding result [7]: no binding; NFκB-luciferase EC50, reporter T-cells + HEK293/hCD20, 50 pM hIgG4 isotype control (no TCR stimulation) [8]: 5.11e-09 M; NFκB-luciferase EC50, reporter T-cells + HEK293/hCD20/hPSMA, 50 pM hIgG4 isotype control (no TCR stimulation) [8]: 4.9e-09 M; NFκB-luciferase EC50, reporter T-cells + HEK293/hCD20, 50 pM anti-CD3×CD20 [10]: 3.59e-09 M
– | – | – | 2.7e-10 | 3.5 | – | 1.72e-10 | 0.853 | 9.58 | 48 | 50.9 | 58.9 | 3.05 | 144 | 3.87 | 0.251 | 235 | bs16429D (bispecific antibody, human IgG4 S228P, kappa, also called anti-PSMA×CD28 bispecific antibody; PSMA × CD28 monoclonal antibody) heavy 1: QVQLQESGPGLVKPSETLSLTCTVSGGSISSYYWSWIRQPPGKGLEWIGYIYYSGITHYNPSLKSRVTISVDTSKIQFSLKLSSVTAADTAVYYCARWGVRRDYYYYGMDVWGQGTTVTVSSASTKGPSVFPLAPCSRSTSESTAALGCLVKDYFPEPVTVSWNSGALTSGVHTFPAVLQSSGLYSLSSVVTVPSSSLGTKTYTCNVDHKPSNTKVDKRVESKYGPPCPPCPAPPVAGPSVFLFPPKPKDTLMISRTPEVTCVVVDVSQEDPEVQFNWYVDGVEVHNAKTKPREEQFNSTYRVVSVLTVLHQDWLNGKEYKCKVSNKGLPSSIEKTISKAKGQPREPQVYTLPPSQEEMTKNQVSLTCLVKGFYPSDIAVEWESNGQPENNYKTTPPVLDSDGSFFLYSRLTVDKSRWQEGNVFSCSVMHEALHNRFTQKSLSLSPGK heavy 2: QVQLVESGGGVVQPGRSLRLSCAASGFTFSSYGMHWVRQAPGKGLEWVAFMSYDGSNKFYSDSVKGRFTISRDNSRKMLFLQMNNLRAEDTAVYYCARDQYYDFLTDHGVFDYWGQGTLVTVSSASTKGPSVFPLAPCSRSTSESTAALGCLVKDYFPEPVTVSWNSGALTSGVHTFPAVLQSSGLYSLSSVVTVPSSSLGTKTYTCNVDHKPSNTKVDKRVESKYGPPCPPCPAPPVAGPSVFLFPPKPKDTLMISRTPEVTCVVVDVSQEDPEVQFNWYVDGVEVHNAKTKPREEQFNSTYRVVSVLTVLHQDWLNGKEYKCKVSNKGLPSSIEKTISKAKGQPREPQVYTLPPSQEEMTKNQVSLTCLVKGFYPSDIAVEWESNGQPENNYKTTPPVLDSDGSFFLYSRLTVDKSRWQEGNVFSCSVMHEALHNHYTQKSLSLSLGK light: not shown | Kd [12]: 0.217 nM; t½ (dissociative half-life) [12]: 182 min; Kd [17]: 0.396 nM; t½ (dissociative half-life) [17]: 146 min; Kd [19]: 272 nM; t½ (dissociative half-life) [19]: 1.7 min; EC50 [20]: 9.34 nM
0.35 | – | – | 2.2e-10 | 8.2 | – | 2.78e-10 | – | 5.31 | 180 | 167 | 180 | 6.33 | 207 | 1.5 | 0.137 | 300 | bs16431D (bispecific antibody, V domains shown, two distinct heavy chains with a common light chain; also called anti-PSMA×CD28 bispecific antibody; PSMA × CD28 monoclonal antibody) VH 1: QVQLVESGGGVVQPGRSLRLSCAASGFTFSSYGMHWVRQAPGKGLEWVAVISYAGNNKYYADSVKGRFTVSRDNSKKTLYLQMNSLRSEDTAVYYCAKDSYYDFLTDPDVLDIWGQGTMVTVSS VH 2: EVQLVESGGGLVQPGGSLRLSCAASGFTFSRNNMHWVRQAPGKGLEYVSGISSNGGRTYYADSVKGRFTISRDNSKNTLYLQMGGLRAADMAVYFCTRDDELLSFDYWGQGTLVTVSS VL: not shown | –
